The record followed here is patent US20230101735A1, “ANTI-TROP-2 ANTIDODY-EXATECAN ANALOG CONJUGATE AND MEDICAL USE THEREOF” (JIANGSU HENGRUI MEDICINE CO., LTD., priority 2020, published 2023).

One experiment has as its system TROP-2. As to the kind of experiment: Antibody endocytosis assay (DT3C cell killing). It counts as cell-based. The note with it: antibody-DT3C mixture, three days, CTG.
A further experiment concerns the target T1, hTROP-2 (Homo sapiens, UniProt P09758).
T1 sequence (P09758 27-274): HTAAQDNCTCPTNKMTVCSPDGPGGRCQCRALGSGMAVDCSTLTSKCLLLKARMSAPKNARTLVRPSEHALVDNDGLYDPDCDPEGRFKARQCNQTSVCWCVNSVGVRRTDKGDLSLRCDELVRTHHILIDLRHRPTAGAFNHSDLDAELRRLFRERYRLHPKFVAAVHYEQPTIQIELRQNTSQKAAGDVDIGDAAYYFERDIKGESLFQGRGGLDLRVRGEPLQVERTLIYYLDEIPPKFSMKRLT
As to the kind of experiment: Antibody protein level binding assay (ELISA). The settings on record: absorbance at 450 nm. Here is the method:
(§1) hTROP-2 protein was diluted to 1 μg/mL with PBS buffer at pH 7.4 (Shanghai BasalMedia Technologies Co., LTD., B320), added into a 96-well microplate at 100 μL per well, and incubated at 4° C. overnight. After the liquid was discarded, 300 μL of 5% skim milk (BD, 232100) diluted with PBS was added into each well for blocking and incubated at 37° C. for 2 h. After the blocking was completed, the blocking solution was discarded; after the plate was washed 3 times with PBST buffer (pH 7.4, PBS containing 0.1% tween-20), 100 μL of a gradient diluted antibody solution was added into each well and incubated at 37° C. for 1 h. After the incubation was completed, the plate was washed 3 times with PBST buffer, and 100 μL of 1:8000 diluted mouse anti-human IgG (H+L) (Jackson ImmunoResearch, 209-035-088) was added into each well and incubated at 37° C. for 1 h. After the plate was washed 3 times with PBST buffer, 100 μL of TMB chromogenic substrate (KPL, 5120-0077) was added into each well and incubated at room temperature for 10-15 min, and the reaction was terminated by adding 50 μL of 1 M H2504 into each well. The plate was detected for the absorbance at 450 nm using a microplate reader, the binding curves of antibodies to antigen were fitted with software, and the EC50 value was calculated.

The target of experiment [1] is T2, TROP-2 expressed on tumor cell lines (FaDu, HCC827, Colo205, DMS53, SK-OV-3) (human, UniProt P09758 27-323).
T2 sequence: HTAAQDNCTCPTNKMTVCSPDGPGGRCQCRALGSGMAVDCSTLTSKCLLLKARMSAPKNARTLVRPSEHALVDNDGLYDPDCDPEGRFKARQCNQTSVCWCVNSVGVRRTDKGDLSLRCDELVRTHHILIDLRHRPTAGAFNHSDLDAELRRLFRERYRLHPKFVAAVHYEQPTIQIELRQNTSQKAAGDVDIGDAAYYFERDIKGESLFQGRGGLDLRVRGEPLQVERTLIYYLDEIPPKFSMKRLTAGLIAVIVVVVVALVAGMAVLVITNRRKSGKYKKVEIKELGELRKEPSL
As to the kind of experiment: cell-based or functional assay.

Experiment [2] addresses T3, hTROP-2 protein (huTROP-2 protein, His27-Thr274, accession No. NP_002344.2) (human, UniProt P09758 27-274).
T3 construct: No tag is stated for this construct; also called antigen hTROP-2
T3 sequence: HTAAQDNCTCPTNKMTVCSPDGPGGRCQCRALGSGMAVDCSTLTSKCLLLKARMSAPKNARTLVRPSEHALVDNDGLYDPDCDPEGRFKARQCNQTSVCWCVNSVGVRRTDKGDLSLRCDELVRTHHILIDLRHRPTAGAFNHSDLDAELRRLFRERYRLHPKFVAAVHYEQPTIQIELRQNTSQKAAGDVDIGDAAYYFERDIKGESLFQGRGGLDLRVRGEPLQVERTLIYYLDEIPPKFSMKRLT
As to the kind of experiment: ELISA, plate coated with hTROP-2 protein at 1 ug/mL, anti-human IgG detection, OD450. Here is the method: as §1, with “EC₅₀” for “EC50”

Experiment [3] addresses T3, hTROP-2 protein (huTROP-2 protein, …). Put plainly: SPR (Biacore T200), antibody captured on chip, hTROP-2 as analyte, 1:1 Langmuir fit. The source says: The affinity of antibody for TROP-2 was detected in a form of a capture antibody. […] After dissociation was completed for each assay cycle, the chip was washed clean and regenerated with regeneration buffer, Glycine1.5 (Cat. #BR100354, GE) or 3 M MgCl₂ (from Human antibody capture kit, Cat. #BR100839, GE). After the assay was completed, the data were fitted with (1:1) Langmuir model using GE Biacore T200 Evaluation version 3.0 to obtain affinity values.

Experiment [4] addresses T4, human TROP-2 on stably transfected CHO-K1 cells (CHO-K1/hTROP-2) (human, UniProt P09758 27-323).
T4 construct: Full-length TROP-2 (Genbank NP_002344.2) expressed from a lentiviral vector; also called stably transfected TROP-2-expressing CHOK1 cells; hTROP-2 protein-expressing cells
T4 sequence: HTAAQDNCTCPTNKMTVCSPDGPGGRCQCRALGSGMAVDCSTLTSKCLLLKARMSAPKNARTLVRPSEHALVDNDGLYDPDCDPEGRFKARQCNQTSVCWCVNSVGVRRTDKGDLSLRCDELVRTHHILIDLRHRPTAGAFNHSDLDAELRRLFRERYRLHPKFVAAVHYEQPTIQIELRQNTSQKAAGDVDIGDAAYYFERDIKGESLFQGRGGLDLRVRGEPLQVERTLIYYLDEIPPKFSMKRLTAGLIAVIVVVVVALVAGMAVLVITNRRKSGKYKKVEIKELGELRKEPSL
As to the kind of experiment: flow cytometry (geometric mean fluorescence) on stably transfected TROP-2-expressing CHOK1 cells, Alexa Fluor 488 anti-human IgG detection. Here is the method: (§2) After centrifugation and removal of the supernatant, the test antibodies that was diluted with FACS buffer to different concentrations were added at 50 μL/well. The plate was incubated in the dark in a 4° C. refrigerator for 1 h. The plate was washed 3 times with FACS buffer by centrifugation at 300 g, and Alexa Fluor 488 goat anti-human IgG (H+L) (invitrogen, A-11013) at working concentration was added. The plate was incubated in the dark in a 4° C. refrigerator for 40 min. The plate was washed 3 times with FACS buffer by centrifugation at 300 g and tested on a BD FACSCantoII flow cytometer for geometric mean fluorescence intensity (MFI). The binding EC₅₀ value of the antibody to the stably transfected TROP-2-expressing cells was calculated.

Experiment [5] addresses T4, human TROP-2 on stably transfected …. As to the kind of experiment: flow cytometry on stably transfected TROP-2-expressing CHOK1 cells. The procedure: as §2
Experiment [6] deals with T2, TROP-2 expressed on tumor cell lines …. Put plainly: cell-based or functional assay. This is another data set of the same source.

As for “hRS7: control anti-TROP-2 antibody, heavy chain SEQ ID NO: 15, light chain SEQ ID NO: 16, constructed with reference to WO03074566 [reference compound]”, the Emax in the experiment on TROP-2 is given as 98.5%. For the same molecule, the “Emax (OD value)” value with hTROP-2 stood at 1.37 OD value.

B1: ADC-4 (TINA-58, n=3.99) (antibody, human IgG1, kappa, V domains shown)
VH: QVQLVQSGAEVKKPGASVKVSCKASGYTFTTAGMQWVRQAPGQGLEWMGWINTHSGVPKYAEDFKGRVTISADTSTSTAYLQLSSLKSEDTAVYYCARSGFGSSYWYFDVWGQGTLVTVSS
VL: DIQMTQSPSSLSASVGDRVTITCKASQDVSTAVAWYQQKPGKAPKLLIYSASYRYTGVPSRFSGSGSGTDFTLTISSLQPEDFAVYYCQQHYITPLTFGQGTKLEIKR
modifications: compound 58 coupled to cysteine thiols after TCEP reduction; positions not given; compound 58 (linker-drug) coupled to cysteine thiols after TCEP reduction; mean n=3.99 per antibody, positions not given
As for B1, in experiment [1], the “EC50 (nM), killing of Colo205 cells” value was determined as 59.8 nM; the “EC50 (nM), killing of DMS53 cells” value came to 75.6 nM; the “EC50 (nM), killing of FaDu cells (CTG, 6 days)” value is 0.53 nM; the “EC50 (nM), killing of HCC827 cells” value stood at 0.27 nM. Besides, in experiment [1], the “Emax (%), killing of Colo205 cells” value came out at 99.7%; the “Emax (%), killing of DMS53 cells” value came to 89.8%; the “Emax (%), killing of FaDu cells” value was found to be 101%; the “Emax (%), killing of HCC827 cells” value was determined as 88.2%. The “Emax (%), killing of SK-OV-3 cells” value in experiment [1] was 49.1%.

B2: TINA anti-TROP-2 antibody (control molecule) (antibody, human IgG1, kappa, V domains shown)
VH: QVQLVQSGAEVKKPGASVKVSCKASGYTFTTAGMQWVRQAPGQGLEWMGWINTHSGVPKYAEDFKGRVTISADTSTSTAYLQLSSLKSEDTAVYYCARSGFGSSYWYFDVWGQGTLVTVSS
VL: DIQMTQSPSSLSASVGDRVTITCKASQDVSTAVAWYQQKPGKAPKLLIYSASYRYTGVPSRFSGSGSGTDFTLTISSLQPEDFAVYYCQQHYITPLTFGQGTKLEIKR
For B2, in experiment [2], the EC50 amounted to 16.1 nM and the “Emax (OD value)” value was found to be 1.39 OD. Moreover, the Kd in experiment [3] was 21.5 nM. In experiment [4], the “EC50 (read off the curve)” value was around 4 µg/mL. In experiment [5], the EC50 worked out at 3.55 nM and the “Emax (MFI)” value is 14200 MFI.

B3: ADC-5 (PD3-58, n=3.88) (antibody, human IgG1, kappa, V domains shown)
VH: EVQLVQSGSELKKPGASVKVSCKASGYTFTNYGMNWVKQAPGQGLKWMGWINTYTGEPTYTQDFKGRFAFSLDTSVSTAYLQISSLKAEDTAVYYCARGGFGSSYWYFDVWGQGTLVTVSS
VL: DIQLTQSPSSLSASVGDRVSITCKASQDVSIAVAWYQQKPGKAPKLLIYSASYRYTGVPDRFSGSGSGTDFTLTISSLQPEDFAVYYCQQHYITPLTFGAGTKVEIKR
modifications: compound 58 coupled to cysteine thiols after TCEP reduction; positions not given; compound 58 coupled to cysteine thiols after TCEP reduction; mean n=3.88 per antibody, positions not given
Take B3: in experiment [6], the “EC50 (nM), killing of Colo205 cells (second parallel assay)” value amounted to 25.6 nM; the “EC50 (nM), killing of DMS53 cells (second parallel assay)” value is 25.7 nM; the “EC50 (nM), killing of FaDu cells (second parallel assay)” value is 0.14 nM; the “EC50 (nM), killing of HCC827 cells (second parallel assay)” value amounted to 0.13 nM.

B4: PD3 anti-TROP-2 antibody (antibody, human IgG1, kappa, V domains shown)
VH: EVQLVQSGSELKKPGASVKVSCKASGYTFTNYGMNWVKQAPGQGLKWMGWINTYTGEPTYTQDFKGRFAFSLDTSVSTAYLQISSLKAEDTAVYYCARGGFGSSYWYFDVWGQGTLVTVSS
VL: DIQLTQSPSSLSASVGDRVSITCKASQDVSIAVAWYQQKPGKAPKLLIYSASYRYTGVPDRFSGSGSGTDFTLTISSLQPEDFAVYYCQQHYITPLTFGAGTKVEIKR
notes: CDR-mutated variant designed on the hRS7 template; also called PD3 antibody
In the case of B4, in experiment [2], the midpoint of the response, the EC50, lay at 13.6 nM and the “Emax (OD value)” value was 1.4 OD. In addition, the Kd in experiment [3] was 0.686 nM. In addition, in experiment [4], the “EC50 (read off the curve)” value was around 2 µg/mL. Moreover, in experiment [5], the response was half-maximal at 1.57 nM (EC50) and the “Emax (MFI)” value was found to be 16700 MFI.

B5: ADC-7 (hRS7-9-A, n=3.72) (antibody, human IgG1, kappa, V domains shown)
VH: QVQLQQSGSELKKPGASVKVSCKASGYTFTNYGMNWVKQAPGQGLKWMGWINTYTGEPTYTDDFKGRFAFSLDTSVSTAYLQISSLKADDTAVYFCARGGFGSSYWYFDVWGQGSLVTVSS
VL: DIQLTQSPSSLSASVGDRVSITCKASQDVSIAVAWYQQKPGKAPKLLIYSASYRYTGVPDRFSGSGSGTDFTLTISSLQPEDFAVYYCQQHYITPLTFGAGTKVEIKR
modifications: compound 9-A coupled to cysteine thiols after TCEP reduction; positions not given; compound 9-A coupled to cysteine thiols after TCEP reduction; mean n=3.72 per antibody, positions not given
Turning to B5, in experiment [1], the “EC50 (nM), killing of Colo205 cells” value worked out at 52.8 nM; the “EC50 (nM), killing of DMS53 cells” value worked out at 72.9 nM; the “EC50 (nM), killing of FaDu cells (CTG, 6 days)” value came out at 0.31 nM; the “EC50 (nM), killing of HCC827 cells” value worked out at 0.18 nM. In addition, in experiment [1], the “Emax (%), killing of Colo205 cells” value is 99.5%; the “Emax (%), killing of DMS53 cells” value amounted to 88.7%; the “Emax (%), killing of FaDu cells” value is 101%; the “Emax (%), killing of HCC827 cells” value was 89.3%. In experiment [1], the “Emax (%), killing of SK-OV-3 cells” value stood at 66.1%.

B6: hRS7 anti-TROP-2 antibody (control molecule) (antibody, human IgG1, kappa, V domains shown)
VH: QVQLQQSGSELKKPGASVKVSCKASGYTFTNYGMNWVKQAPGQGLKWMGWINTYTGEPTYTDDFKGRFAFSLDTSVSTAYLQISSLKADDTAVYFCARGGFGSSYWYFDVWGQGSLVTVSS
VL: DIQLTQSPSSLSASVGDRVSITCKASQDVSIAVAWYQQKPGKAPKLLIYSASYRYTGVPDRFSGSGSGTDFTLTISSLQPEDFAVYYCQQHYITPLTFGAGTKVEIKR
As to B6, in experiment [2], the EC50 turned out to be 18.3 nM and the “Emax (OD value)” value worked out at 1.37 OD. For the same molecule, the affinity in experiment [3], expressed as Kd, was 0.987 nM. In experiment [4], the “EC50 (read off the curve)” value is around 3 µg/mL. In addition, in experiment [5], the EC50 stood at 2.31 nM and the “Emax (MFI)” value was 16000 MFI.
